From publication PMC3413111
Where a chain is given by its changes, count along the chain named. Where two headings read alike, the source gives them in different places.

What was measured:
Bse634I wt [1] = biological target: T1, Bse634I wt (UniProt Q8RT53 1-293); test: EMSA
T1 sequence: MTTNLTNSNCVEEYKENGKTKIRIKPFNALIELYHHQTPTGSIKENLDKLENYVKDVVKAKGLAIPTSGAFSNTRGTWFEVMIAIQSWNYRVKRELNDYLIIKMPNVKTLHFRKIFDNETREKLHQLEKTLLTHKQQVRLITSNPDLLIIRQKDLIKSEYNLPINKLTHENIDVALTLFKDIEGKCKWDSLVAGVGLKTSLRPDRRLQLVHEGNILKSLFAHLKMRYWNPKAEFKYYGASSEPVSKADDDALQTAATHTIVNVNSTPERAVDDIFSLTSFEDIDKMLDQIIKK

Bse634I R226A [2] = biological target: T2, Bse634I R226A (UniProt Q8RT53 1-293, R226A); test: crystal structure
T2 sequence: T1 sequence with R226A

Bse634I R226A [3] = biological target: T2, Bse634I R226A; test: crystal structure; remark: listed apart in the source
Bse634I wt [4] = biological target: T1, Bse634I wt; test: EMSA; remark: listed apart in the source
Bse634I R226A [5] = biological target: T2, Bse634I R226A; test: crystal structure; remark: listed apart in the source

B1: AT (dsDNA)
DNA 1: CGCACGATCACCGGTGATGCACGC
DNA 2: GCGTGCATCACCGGTGATCGTGCG
B1: binds (Bse634I wt [1]).

B2: GC (dsDNA)
DNA 1: CGCACGATCGCCGGCGATGCACGC
DNA 2: GCGTGCATCGCCGGCGATCGTGCG
B2: binds (Bse634I wt [1]).

B3: AT-1 (dsDNA)
DNA 1: TCGCACCGGTGCG
DNA 2: TCGCACCGGTGCG
B3: binds (Bse634I R226A [2]).

B4: AT-2 (dsDNA)
DNA 1: TTCGACCGGTCGA
DNA 2: TTCGACCGGTCGA
B4: binds (Bse634I R226A [3]).

B5: AU (dsDNA)
DNA 1: CGCACGATCACCGGUGATGCACGC
DNA 2: GCGTGCATCACCGGUGATCGTGCG
modifications: dU for T at position 15 of each strand
B5: binds (Bse634I wt [4]).

B6: IC (dsDNA)
DNA 1: CGCACGATCGCCGGCGATGCACGC
DNA 2: GCGTGCATCGCCGGCGATCGTGCG
modifications: inosine for G at position 10 of each strand (written as G)
B6: binds (Bse634I wt [4]).

B7: GC-1 (dsDNA)
DNA 1: TCGCGCCGGCGCG
DNA 2: TCGCGCCGGCGCG
B7: binds (Bse634I R226A [5]).
